Patent publication US20230296611A1 (INNATE PHARMA, published 2023)

Assays:
[1] = target: T1, human MICA*001 (human, UniProt Q29983 24-297); test: IHC with hybridoma supernatant on FFPE C1R MICA*001 cell pellet, Ventana, CC1 or CC2
T1 construct: C1R-neo cells transfected with human MICA*001, formalin fixed and paraffin embedded (or live cells for flow cytometry); also called C1R MICA*001 cells
T1 sequence: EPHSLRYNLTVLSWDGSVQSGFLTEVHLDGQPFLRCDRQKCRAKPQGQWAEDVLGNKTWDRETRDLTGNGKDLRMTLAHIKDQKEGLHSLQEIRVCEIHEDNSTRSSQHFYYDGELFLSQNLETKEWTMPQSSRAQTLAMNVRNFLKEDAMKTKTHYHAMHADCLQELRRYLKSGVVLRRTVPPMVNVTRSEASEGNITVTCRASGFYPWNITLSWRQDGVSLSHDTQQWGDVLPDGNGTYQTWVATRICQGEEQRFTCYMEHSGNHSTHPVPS
Procedure: (§1) In parallel to the phenotyping by flow cytometry, the cell lines were fixed in formalin and embedded in paraffin. Briefly, 20×10⁶ to 40×10⁶ cells were fixed for 1 hour with formalin 4%. The cells were washed twice in PBS, and there were resuspended in Histogel. The cell pellets were dehydrated and embedded in paraffin. For each cell line, several FFPE cell pellets were made A mix of cells (C1R MICA*008 (15.10⁶ cells) and C1R MICB (15.10⁶ cells)) was also were embedded in paraffin. Sectioning of FFPE cell pellets was performed and MICA/B staining done by IHC. Briefly, 5 μm-thick sections were incubated dewaxed, submitted to an antigen retrieval step and incubated with immune or non-immune sera, hybridoma supernatants, chain combinations Abs or purified and commercial Abs followed by a signal amplification step. Enzymatic revelation was finally performed using 3, 3′-diaminobenzidine (DAB). For the IHC stainings with the mouse sera, staining interpretation was done by attributing a percentage of stained cells in the pellet section as well as an intensity score using the following criterion: “−”: negative staining; “+”: weak positive staining; “++”: intermediate IHC signal in intensity and “+++”: strong positive staining. […]

[2] = target: T2, human MICA*008 (human, UniProt Q29983 24-297); test: IHC with hybridoma supernatant on FFPE C1R MICA*008 cell pellet, Ventana, CC1 or CC2
T2 construct: C1R-neo cells transfected with human MICA*008, formalin fixed and paraffin embedded (or live cells for flow cytometry); transmembrane and cytoplasmic parts are not in the entry; also called C1R MICA*008 cells
T2 chain: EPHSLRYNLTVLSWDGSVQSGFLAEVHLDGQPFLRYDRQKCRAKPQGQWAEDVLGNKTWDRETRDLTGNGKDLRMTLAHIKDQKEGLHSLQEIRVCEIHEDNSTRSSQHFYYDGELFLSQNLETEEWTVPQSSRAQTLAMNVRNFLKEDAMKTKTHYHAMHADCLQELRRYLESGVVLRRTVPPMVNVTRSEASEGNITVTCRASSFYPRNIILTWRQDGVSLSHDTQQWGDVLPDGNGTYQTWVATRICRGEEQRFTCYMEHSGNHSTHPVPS
Procedure: as §1

B1: antibody 12C9 (antibody, V domains shown)
VH: EIQLQQSGPELEKPGASVKISCKASGYAFTGYYMNWMKQRNGKSLDWIGTINPYYGSSTYNQKFKGKATLTVDESSSTAYMQLTSLTSEDSAVYYCARVDGDHGYFDYWGRGTTLTVSS
VL: DVVMTQTPLSLPVSLGDQASISCRSSQSLVHSNGNTYLHWYLQKPGQSPKLLIYKVSTRFSGVPDRFSGSGSGTDFTLKISRVEAEDLGVYFCSQSTHVPFTFGSGTKLEIK
notes: Produced as a mouse antibody with mouse gamma1 chain (mIgG1 isotype)
binding result [1]: binds | binding result [2]: binds
